Data published in patent US6977175 (MIT, dated 2005).

B1: LIN-9 protein (other, C. elegans, UniProt P30630 1-644, looked up)
chain: MSSAVRSPRKKAASDTSDPDRTSSPYSLRETSKVPSRYRNEELYLSPSRSIKRTGSPKKSPAKRLNGGRDSPSVNSLTRNSSLTMLAKAALDYESSSCALEYIFQPKEERRPPRRALALSPPPAPSNDLLAKDLEMIEMHQNLVAGLDDLDNPANMTNEAVEHRDTQSFFNMFSTDQERSAMMKQFKTYKNQTSEDVSTFMRANIKKLYNLLRYKKARQWVMCEFFYSAIDEQIFKEENEFATIIRESFPNLKNWNLTRIEWRSIRKLLGKPRRCSKVFFEEERMYLEEKRMKIRSVYEGSYLNDPSIDLKDLPAKLPRPMVVGNRVFARIRNPYDGIYSGIIDAVIPKGFRIIFDKPDIPPTLVSDTEILLDGKLDLLSIAYFIEQANSKLPSGVRPFVAAVRDSSHPHLVRDVLVSRKIERSGGPLMGPNDERLNGKNAEMVGNFPLKFLVNLVKLTKLIDIKKGLIRQLNELNADAEIQNMTSDKYSKAFQEKYAKTIIDLEHVNQNIDINMNGIQDHHMYFSSNDISTSNMKPEAVRQMCSQQAGRFVEHCNQGLNVENVHALTLIQSLTAVLLQVRTMGTQKISAVDLQSLGDAISEIRTAIHPRNVAFFQDYVEVHMKQFHTIMLESGALAGTVSNRK
notes: Tested in a yeast two-hybrid assay; The fusion partners and construct limits are not described
B2: LIN-15A protein (other, C. elegans, UniProt Q27365 1-719, looked up)
chain: MLAPAAPAKDVVSADEKEEIIAKRKFRMKNVDAMRMSSLANDRMAFNKKCNALAMKFVKSAGIGTDALQLTCFQELVRHFNPIAAVVVGVKREPNSNVQAEKKTIPKVKTIQTPTQSMESVRLLQEKKASATEEQSAESASIMKHFANTIPNSTPTQSVKDVLTAAASKGQFKSSAEIFSHFPSEPSPSKPRATREGSQPSDYTYCTYLTPCILCEKALLMRESIAMTDNEAVKVLMAAVMSGHFRMATAEKAIRHERLRMCYDHVDFVYEMMCDAFEAKTESEINEMPPDRLMRGHDIYRALKRVGDLHKGKVTSNTPLYSFKNSIKSYYRNHVPRMVNGSLSKPSPKPFSELVALLQSVPPSTNLNELLNHNLSLSDADKQELIQLINGKDNRFTSRRRKIEDILDNKFAAAAAKAYRDHSEDAPSEPYIPNQSEMQNTVERRKRKLHSPEQDDAGSSSISWNAKKTKTPIDYVHLATRVLEGHSIADEALLHKSKVSYARNAFGEKPSSPTPPSAPLKFCVVNGKKYLRFENGTGPPKVVVQGNVVLRTNTLKDALTTAPRAQNQPSTSTDSSSSSEMEGIRQSFGAPQKEEEEEELVPTLLQNKPTHVESSSPVEKKPPTKTNVEKPAVRLGRMLTTAFGSMSYRTRKSVENKTDLLNQPTSASPRRMIKVVRNRNPHLAKQVAAAPSEPKHIPPTHMEKKPEELLMDPKPEPIF
notes: as for B1

Assays:
LIN-15B protein = target: T1, LIN-15B protein (C. elegans, UniProt Q27395 1-1440, limits assumed); test: yeast two-hybrid
T1 construct: Tested in a yeast two-hybrid assay; The fusion partners and construct limits are not described
T1 sequence (looked up): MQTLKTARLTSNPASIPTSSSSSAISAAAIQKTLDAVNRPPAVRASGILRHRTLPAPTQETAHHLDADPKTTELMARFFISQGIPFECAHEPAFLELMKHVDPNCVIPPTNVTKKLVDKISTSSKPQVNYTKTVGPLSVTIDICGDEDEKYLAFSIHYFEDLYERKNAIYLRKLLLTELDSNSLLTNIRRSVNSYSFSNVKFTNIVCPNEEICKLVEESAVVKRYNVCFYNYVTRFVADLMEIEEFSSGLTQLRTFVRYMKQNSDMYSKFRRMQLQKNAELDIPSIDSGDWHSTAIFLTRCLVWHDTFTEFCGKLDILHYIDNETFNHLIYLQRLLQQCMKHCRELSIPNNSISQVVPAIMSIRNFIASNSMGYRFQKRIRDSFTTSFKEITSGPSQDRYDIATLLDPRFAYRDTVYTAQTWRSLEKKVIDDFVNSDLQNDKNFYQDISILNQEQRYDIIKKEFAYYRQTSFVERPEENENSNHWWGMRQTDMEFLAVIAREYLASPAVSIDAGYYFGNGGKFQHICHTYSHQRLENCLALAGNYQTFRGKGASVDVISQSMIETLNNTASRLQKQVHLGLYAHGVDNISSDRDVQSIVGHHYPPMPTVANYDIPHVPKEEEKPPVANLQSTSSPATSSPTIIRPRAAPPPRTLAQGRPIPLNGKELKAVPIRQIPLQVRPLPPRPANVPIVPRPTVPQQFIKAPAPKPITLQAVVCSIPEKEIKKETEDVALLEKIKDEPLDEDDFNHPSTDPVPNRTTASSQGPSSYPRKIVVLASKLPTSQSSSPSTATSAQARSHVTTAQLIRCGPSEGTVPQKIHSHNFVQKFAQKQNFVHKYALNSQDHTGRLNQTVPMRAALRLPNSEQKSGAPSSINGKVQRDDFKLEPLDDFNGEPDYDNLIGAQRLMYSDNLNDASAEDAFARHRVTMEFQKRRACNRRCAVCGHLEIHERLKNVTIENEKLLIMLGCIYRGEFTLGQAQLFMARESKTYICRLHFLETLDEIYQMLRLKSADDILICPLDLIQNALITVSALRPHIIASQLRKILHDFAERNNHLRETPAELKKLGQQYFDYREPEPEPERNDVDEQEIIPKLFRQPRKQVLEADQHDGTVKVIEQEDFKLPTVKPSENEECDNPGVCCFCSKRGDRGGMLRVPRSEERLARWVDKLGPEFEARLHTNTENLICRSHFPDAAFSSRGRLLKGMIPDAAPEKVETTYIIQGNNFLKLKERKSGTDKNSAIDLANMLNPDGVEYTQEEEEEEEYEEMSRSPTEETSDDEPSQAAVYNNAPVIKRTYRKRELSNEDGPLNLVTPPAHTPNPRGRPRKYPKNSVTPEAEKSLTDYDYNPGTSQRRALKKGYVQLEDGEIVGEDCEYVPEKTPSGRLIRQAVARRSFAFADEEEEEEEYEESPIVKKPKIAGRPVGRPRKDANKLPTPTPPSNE

LIN-15A protein = target: B2; test: yeast two-hybrid

Binder	binding result (LIN-15B protein)	binding result (LIN-15A protein)
B1	no binding	no binding
B2	no binding	
